Results taken from patent US20110236390A1 (Janssen / Centocor, published 2011).

T1: cynomolgus IL-17A (cynomolgus, UniProt Q16552 24-155 (human entry), limits assumed)
T1 construct: also called cyno IL-17A; cynoIL-17A
T1 chain: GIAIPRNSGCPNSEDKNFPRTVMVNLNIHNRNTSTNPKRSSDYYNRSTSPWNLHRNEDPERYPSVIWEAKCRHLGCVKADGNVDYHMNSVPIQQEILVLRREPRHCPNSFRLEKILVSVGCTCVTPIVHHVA

T2: human IL-17A (human, UniProt Q16552 24-155)
T2 sequence: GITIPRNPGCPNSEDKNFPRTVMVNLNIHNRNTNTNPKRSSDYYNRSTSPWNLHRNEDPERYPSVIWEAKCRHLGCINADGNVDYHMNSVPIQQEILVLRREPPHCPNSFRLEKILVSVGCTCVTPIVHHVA

T3: rhIL-17A/F heterodimer (R&D Systems) (human, UniProt Q16552 20-155; Q96PD4 31-163, limits assumed)
T3 sequence (looked up) 1: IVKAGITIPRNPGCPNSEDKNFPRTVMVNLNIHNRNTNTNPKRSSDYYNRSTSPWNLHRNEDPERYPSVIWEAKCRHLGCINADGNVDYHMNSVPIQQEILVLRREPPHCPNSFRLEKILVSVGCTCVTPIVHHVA
T3 sequence (looked up) 2: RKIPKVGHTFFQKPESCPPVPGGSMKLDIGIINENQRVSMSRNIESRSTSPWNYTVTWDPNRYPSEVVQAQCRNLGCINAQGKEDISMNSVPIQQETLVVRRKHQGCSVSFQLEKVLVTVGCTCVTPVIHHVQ


Legend:
cynomolgus IL-17A [1] = biological target: T1, cynomolgus IL-17A; test: competition ELISA: mAb against biotinylated cyno IL-17A binding to coated IL-17RA-Fc
Procedure: Clear maxisorp plates were coated with 100 μl/well of 2.5 μg/ml human IL-17RA-Fc (R&D Systems, Minneapolis, Minn.) in 0.1 M sodium carbonate-bicarbonate buffer, pH 9.4 and incubated overnight at 4° C. […] The signal was detected with 100 μl of 1:10,000 dilution of 1 mg/ml SA-HRP (Jackson Immunoresearch, West Grove, Pa.) for 20 minutes at room temperature (RT) followed by 100 μl/well of OPD substrate (Sigma-Aldrich Corp., St. Louis, Mo.).

cynomolgus IL-17A [2] = biological target: T1, cynomolgus IL-17A; test: SPR Biacore 3000, antibody captured, IL-17 in solution
Procedure: (§1) Affinity measurements using Surface Plasmon Resonance (SPR) were performed using a Biacore 3000 optical biosensor (Biacore).

cynomolgus IL-17A [3] = biological target: T1, cynomolgus IL-17A; test: cell-based or functional assay
cynomolgus IL-17A [4] = biological target: T1, cynomolgus IL-17A; test: SPR Biacore 3000, Fab captured, IL-17 in solution
Procedure: as §1

human IL-17A = biological target: T2, human IL-17A; test: binding ELISA, IL-17A protein coated on micro-titer plate, serial dilutions of labeled mAb1926, 37 C 2 h
Source text: Human, mouse and rat IL-17A proteins were coated on the micro-titer plates.

[5] = biological target: T3, rhIL-17A/F heterodimer (R&D Systems); test: cell-based or functional assay

| Binder | IC50 (cynomolgus IL-17A [1]) [nM] | Kd (cynomolgus IL-17A [2]) [nM] | Stoichiometry (cynomolgus IL-17A [2]) [dimers per anti-IL-17] | IL-6 production (NHDF), IC50 (cynomolgus IL-17A [3]) [nM] | IL-8 production (NHDF), IC50 (cynomolgus IL-17A [3]) [nM] | Kd (cynomolgus IL-17A [4]) [nM] | binding result (human IL-17A) | IL-17A/F heterodimer-induced IL-6 production by NHDF, EC50 [5] [nM] |
| --- | --- | --- | --- | --- | --- | --- | --- | --- |
| mAb7146 (antibody, human IgG1, lambda, V domains shown, Framework-engineered mAb; also called engineered form of MOR8160) VH: QVQLLESGGGLVQPGGSLRLSCAASGFTFSSYAMSWVRQAPGKGLEWVSTISMTSGFTYYADSVKGRFTISRDNSKNTLYLQMNSLRAEDTAVYYCARQLTLDVWGQGTLVTVSS VL: QSVLTQPPSVSVAPGQTARISCSGDNLGDKYANWYQQKPGQAPVLVIYDDIDRPSGIPERFSGSNSGNTATLTISGTQAEDEADYYCGSYDFFLGLIVFGGGTKLTVLG | 0.067 | 0.05 | 2 | 0.139 | 0.14 | – | – | – |
| Fab6468, a recombinant His6-tagged Fab of mAb6785 (Fab, V domains shown) VH: QVQLLESGGGLVQPGGSLRLSCAASGFTFSSYAMSWVRQAPGKGLEWVSTISLTSGFTYYADSVKGRFTISRDNSKNTLYLQMNSLRAEDTAVYYCARQLTLDVWGQGTLVTVSS VL: QSVLTQPPSVSVAPGQTARISCSGDNLGDKYANWYQQKPGQAPVLVIYDDIDRPSGIPERFSGSNSGNTATLTISGTQAEDEADYYCGSYDFFLGMIVFGGGTKLTVLG | – | – | – | – | – | 0.205 | – | – |
| mAb1926 (antibody, human IgG1, lambda, V domains shown, Framework-engineered mAb; also called mAbtr1926; engineered form of MOR7700) VH: QVQLLESGGGLVQPGGSLRLSCAASGFTFSSYAMSWVRQAPGKGLEWVSTISMTSGFTYYADSVKGRFTISRDNSKNTLYLQMNSLRAEDTAVYYCARQLMLDVWGQGTLVTVSS VL: QSVLTQPPSVSVAPGQTARISCSGDNLGDKYANWYQQKPGQAPVLVIYDDIDRPSGIPERFSGSNSGNTATLTISGTQAEDEADYYCGSYDFFLGMIVFGGGTKLTVLG | 0.053 | 0.018 | 2.3 | 0.067 | – | – | binds | – |
| mAb5548 (antibody, human IgG1, lambda, V domains shown, Framework-engineered mAb) VH: QVQLLESGGGLVQPGGSLRLSCAASGFTFSSYAMSWVRQAPGKGLEWVSTISLTSGFTYYADSVKGRFTISRDNSKNTLYLQMNSLRAEDTAVYYCARQLTLDVWGQGTLVTVSS VL: QSVLTQPPSVSVAPGQTARISCSGDNLGDKYANWYQQKPGQAPVLVIYDDIDRPSGIPERFSGSNSGNTATLTISGTQAEDEADYYCGSYDFFLGLIVFGGGTKLTVLG | – | 0.225 | 1.9 | – | – | – | – | – |
| mAb6785 (antibody, human IgG1, lambda, V domains shown, Framework-engineered mAb; also called engineered form of MOR8302) VH: QVQLLESGGGLVQPGGSLRLSCAASGFTFSSYAMSWVRQAPGKGLEWVSTISLTSGFTYYADSVKGRFTISRDNSKNTLYLQMNSLRAEDTAVYYCARQLTLDVWGQGTLVTVSS VL: QSVLTQPPSVSVAPGQTARISCSGDNLGDKYANWYQQKPGQAPVLVIYDDIDRPSGIPERFSGSNSGNTATLTISGTQAEDEADYYCGSYDFFLGMIVFGGGTKLTVLG | 0.076 | 0.148 | 2.2 | 0.193 | 0.563 | – | – | 2 |
| mAb4538 (antibody, human IgG1, lambda, V domains shown, Framework-engineered mAb; also called engineered form of MOR7706) VH: QVQLQQSGPGLVKPSQTLSLTCAISGDSVSSSSAAWGWIRQSPSRGLEWLGRISYRSKWYNDYAVSVKSRITINPDTSKNQFSLQLNSVTPEDTAVYYCAREVDSMYYSYFDIWGQGTLVTVSS VL: EIVLTQSPATLSLSPGERATLSCRASQNVWAFYLAWYQQKPGQAPRLLIYGASNRATGIPARFSGSGSGTDFTLTISSLEPEDFAVYYCQQYRSTLSLTFGQGTKVEIKG | 0.636 | – | – | 0.847 | 1.75 | – | – | – |
| mAb3584 (antibody, human IgG1, lambda, V domains shown, Framework-engineered mAb; also called engineered form of MOR8299) VH: QVQLQQSGPGLVKPSQTLSLTCAISGDSVSSSSAAWGWIRQSPSRGLEWLGRISYRSKWYNDYAVSVKSRITINPDTSKNQFSLQLNSVTPEDTAVYYCAREVDSIYYSYFDIWGQGTLVTVSS VL: EIVLTQSPATLSLSPGERATLSCRASQNVWAFYLAWYQQKPGQAPRLLIYGASNRATGIPARFSGSGSGTDFTLTISSLEPEDFAVYYCQQYRSTLSLTFGQGTKVEIKG | 0.489 | – | – | 0.823 | 1.25 | – | – | – |
| mAb4168 (antibody, human IgG1, lambda, V domains shown, Framework-engineered mAb; also called engineered form of MOR8103) VH: QVQLQQSGPGLVKPSQTLSLTCAISGDSVSSSSAAWGWIRQSPSRGLEWLGRISYRSKWYNDYAVSVKSRITINPDTSKNQFSLQLNSVTPEDTAVYYCAREVDSTYYSYFDIWGQGTLVTVSS VL: EIVLTQSPATLSLSPGERATLSCRASQNVWAFYLAWYQQKPGQAPRLLIYGASNRATGIPARFSGSGSGTDFTLTISSLEPEDFAVYYCTQYYSSPSLTFGQGTKVEIKG | 0.764 | – | – | 2.17 | 3.3 | – | – | – |
| mAb732 (antibody, human IgG1, lambda, V domains shown, Framework-engineered mAb; also called engineered form of MOR7775) VH: QVQLQQSGPGLVKPSQTLSLTCAISGDSVSSSSAAWGWIRQSPSRGLEWLGRISYRSKWYNDYAVSVKSRITINPDTSKNQFSLQLNSVTPEDTAVYYCAREVDSMYYSYFDIWGQGTLVTVSS VL: EIVLTQSPATLSLSPGERATLSCRASQNVWAFYLAWYQQKPGQAPRLLIYGASNRATGIPARFSGSGSGTDFTLTISSLEPEDFAVYYCTQYYSSPSLTFGQGTKVEIKG | 0.463 | – | – | 2.02 | 12.5 | – | – | – |
